Data published in patent publication US20150344570A1 (published 2015).

T1: FcγRIIa R (human, UniProt P12318 34-217)
T1 construct: extracellular domain; also called FcgRIIa R type; 2aR
T1 sequence (looked up): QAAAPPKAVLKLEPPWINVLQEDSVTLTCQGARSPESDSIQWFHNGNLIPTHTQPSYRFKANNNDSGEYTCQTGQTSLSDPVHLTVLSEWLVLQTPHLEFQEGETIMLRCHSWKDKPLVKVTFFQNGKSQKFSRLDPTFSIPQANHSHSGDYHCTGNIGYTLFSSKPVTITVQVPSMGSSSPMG

T2: FcγRIIb (human, UniProt P31994 43-217)
T2 construct: extracellular domain; also called FcgRIIb; 2b
T2 sequence (looked up): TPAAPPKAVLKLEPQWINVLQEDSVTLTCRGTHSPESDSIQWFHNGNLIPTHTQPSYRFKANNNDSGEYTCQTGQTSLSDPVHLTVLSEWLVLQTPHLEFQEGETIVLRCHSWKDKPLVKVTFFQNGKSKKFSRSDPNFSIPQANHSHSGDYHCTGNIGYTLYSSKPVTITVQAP

B1: GpH7-A5/GpH7-B3 variant S298_05P/GpL16-k0 (antibody, human IgG1, kappa)
heavy 1: not shown
heavy 2: not shown
light: DIVMTQSPLSLPVTPGEPASISCQASESLVHSNRNTYLHWYLQKPGQSPQLLIYKVSNRFSGVPDRFSGSGSGTDFTLKISRVEAEDVGVYYCSQNTHVPPTFGQGTKVEIERTVAAPSVFIFPPSDEQLKSGTASVVCLLNNFYPREAKVQWKVDNALQSGNSQESVTEQDSKDSTYSLSSTLTLSKADYEKHKVYACEVTHQGLSSPVTKSFNRGEC
notes: heterodimerized anti-glypican-3 IgG1; alteration in one H chain only; also called He Ab
B2: GpH7-A5/GpH7-B3 variant Y296_03V/GpL16-k0 (antibody, human IgG1, kappa)
heavy 1: not shown
heavy 2: not shown
light: B1 light
notes: as for B1
B3: GpH7-A5/GpH7-B3 variant V266_16H/GpL16-k0 (antibody, human IgG1, kappa)
heavy 1: not shown
heavy 2: not shown
light: B1 light
notes: as for B1
B4: GpH7-A5/GpH7-B3 variant S298_07I/GpL16-k0 (antibody, human IgG1, kappa)
heavy 1: not shown
heavy 2: not shown
light: B1 light
notes: as for B1
B5: GpH7-A5/GpH7-B3 variant S298_09D/GpL16-k0 (antibody, human IgG1, kappa)
heavy 1: not shown
heavy 2: not shown
light: B1 light
notes: as for B1
B6: GpH7-A5/GpH7-B3 variant Y296_01G/GpL16-k0 (antibody, human IgG1, kappa)
heavy 1: not shown
heavy 2: not shown
light: B1 light
notes: as for B1
B7: GpH7-A5/GpH7-B3 variant Y296_12R/GpL16-k0 (antibody, human IgG1, kappa)
heavy 1: not shown
heavy 2: not shown
light: B1 light
notes: as for B1
B8: GpH7-A5/GpH7-B3 variant Y296_11K/GpL16-k0 (antibody, human IgG1, kappa)
heavy 1: not shown
heavy 2: not shown
light: B1 light
notes: as for B1
B9: GpH7-A5/GpH7-B3 variant Y296_05P/GpL16-k0 (antibody, human IgG1, kappa)
heavy 1: not shown
heavy 2: not shown
light: B1 light
notes: as for B1
B10: GpH7-B3 variant T335_04F/GpL16-k0 (antibody, human IgG1, kappa)
heavy: not shown
light: B1 light
notes: homodimerized IgG1, mutation in both H chains; also called Ho Ab
B11: GpH7-B3 variant H268_09D/GpL16-k0 (antibody, human IgG1, kappa)
heavy: not shown
light: B1 light
notes: as for B10
B12: GpH7-B3 variant S337_10E/GpL16-k0 (antibody, human IgG1, kappa)
heavy: not shown
light: B1 light
notes: as for B10
B13: GpH7-B3 variant I336_12R/GpL16-k0 (antibody, human IgG1, kappa)
heavy: not shown
light: B1 light
notes: as for B10
B14: GpH7-B3 variant T335_12R/GpL16-k0 (antibody, human IgG1, kappa)
heavy: not shown
light: B1 light
notes: as for B10
B15: GpH7-B3 variant H268_13S/GpL16-k0 (antibody, human IgG1, kappa)
heavy: not shown
light: B1 light
notes: as for B10
B16: GpH7-B3 variant I336_08L/GpL16-k0 (antibody, human IgG1, kappa)
heavy: not shown
light: B1 light
notes: as for B10
B17: GpH7-B3 variant T335_15Y/GpL16-k0 (antibody, human IgG1, kappa)
heavy: not shown
light: B1 light
notes: as for B10
B18: GpH7-B3 variant T335_06M/GpL16-k0 (antibody, human IgG1, kappa)
heavy: not shown
light: B1 light
notes: as for B10
B19: GpH7-B3 variant T335_19Q/GpL16-k0 (antibody, human IgG1, kappa)
heavy: not shown
light: B1 light
notes: as for B10
B20: GpH7-B3 variant T335_20W/GpL16-k0 (antibody, human IgG1, kappa)
heavy: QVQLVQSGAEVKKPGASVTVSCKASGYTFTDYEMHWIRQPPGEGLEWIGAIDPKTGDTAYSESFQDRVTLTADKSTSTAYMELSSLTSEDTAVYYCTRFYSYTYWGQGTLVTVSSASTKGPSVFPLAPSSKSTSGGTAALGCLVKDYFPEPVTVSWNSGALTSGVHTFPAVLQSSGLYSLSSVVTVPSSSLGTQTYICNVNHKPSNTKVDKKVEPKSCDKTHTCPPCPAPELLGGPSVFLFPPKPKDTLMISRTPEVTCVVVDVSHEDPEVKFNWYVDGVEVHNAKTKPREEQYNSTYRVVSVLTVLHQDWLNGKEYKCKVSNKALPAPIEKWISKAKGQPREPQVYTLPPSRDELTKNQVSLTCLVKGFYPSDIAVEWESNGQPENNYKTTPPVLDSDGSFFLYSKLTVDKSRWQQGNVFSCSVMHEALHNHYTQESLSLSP
light: B1 light
notes: as for B10
B21: GpH7-B3 variant A330_19Q/GpL16-k0 (antibody, human IgG1, kappa)
heavy: not shown
light: B1 light
notes: as for B10
B22: GpH7-B3 variant T335_16H/GpL16-k0 (antibody, human IgG1, kappa)
heavy: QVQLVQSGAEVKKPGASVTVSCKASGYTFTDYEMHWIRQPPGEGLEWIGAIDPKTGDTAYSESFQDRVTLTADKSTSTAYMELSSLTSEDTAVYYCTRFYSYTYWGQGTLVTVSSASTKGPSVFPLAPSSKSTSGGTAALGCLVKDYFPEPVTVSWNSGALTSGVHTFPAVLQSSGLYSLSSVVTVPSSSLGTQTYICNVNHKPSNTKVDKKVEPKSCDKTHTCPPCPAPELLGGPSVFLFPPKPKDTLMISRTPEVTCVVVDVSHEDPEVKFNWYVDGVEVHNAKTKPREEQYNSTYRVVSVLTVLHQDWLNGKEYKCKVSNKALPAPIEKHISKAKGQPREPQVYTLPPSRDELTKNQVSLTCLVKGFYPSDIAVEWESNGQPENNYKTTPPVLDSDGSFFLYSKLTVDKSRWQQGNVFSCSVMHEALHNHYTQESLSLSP
light: B1 light
notes: as for B10
B23: GpH7-B3 variant I336_09D/GpL16-k0 (antibody, human IgG1, kappa)
heavy: not shown
light: B1 light
notes: as for B10
B24: GpH7-B3 variant T335_05P/GpL16-k0 (antibody, human IgG1, kappa)
heavy: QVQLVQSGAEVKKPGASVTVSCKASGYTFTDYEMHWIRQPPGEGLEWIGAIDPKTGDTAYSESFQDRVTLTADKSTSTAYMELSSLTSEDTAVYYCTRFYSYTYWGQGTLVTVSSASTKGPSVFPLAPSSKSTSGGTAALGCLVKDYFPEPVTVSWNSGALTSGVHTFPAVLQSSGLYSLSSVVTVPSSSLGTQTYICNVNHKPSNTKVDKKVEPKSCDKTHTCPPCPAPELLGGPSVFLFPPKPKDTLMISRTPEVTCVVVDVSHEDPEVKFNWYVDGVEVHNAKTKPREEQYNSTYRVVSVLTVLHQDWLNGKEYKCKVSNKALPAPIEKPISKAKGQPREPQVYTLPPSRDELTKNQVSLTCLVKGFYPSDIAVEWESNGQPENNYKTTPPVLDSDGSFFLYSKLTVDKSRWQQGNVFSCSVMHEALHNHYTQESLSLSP
light: B1 light
notes: as for B10
B25: GpH7-B3 variant I336_11K/GpL16-k0 (antibody, human IgG1, kappa)
heavy: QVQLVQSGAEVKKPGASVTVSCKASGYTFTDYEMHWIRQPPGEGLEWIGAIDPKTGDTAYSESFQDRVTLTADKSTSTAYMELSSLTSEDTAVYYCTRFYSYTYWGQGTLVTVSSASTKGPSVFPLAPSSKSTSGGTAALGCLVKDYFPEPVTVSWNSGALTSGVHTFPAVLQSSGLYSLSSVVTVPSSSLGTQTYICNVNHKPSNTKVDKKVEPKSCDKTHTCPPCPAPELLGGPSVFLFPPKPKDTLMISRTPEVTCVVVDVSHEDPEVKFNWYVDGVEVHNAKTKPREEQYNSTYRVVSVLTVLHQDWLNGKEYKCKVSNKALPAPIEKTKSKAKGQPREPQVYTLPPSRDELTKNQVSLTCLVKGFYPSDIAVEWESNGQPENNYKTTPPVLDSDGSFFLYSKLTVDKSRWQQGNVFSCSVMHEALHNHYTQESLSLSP
light: B1 light
notes: as for B10
B26: GpH7-B3 variant H268_01G/GpL16-k0 (antibody, human IgG1, kappa)
heavy: not shown
light: B1 light
notes: as for B10
B27: GpH7-B3 variant T335_08L/GpL16-k0 (antibody, human IgG1, kappa)
heavy: not shown
light: B1 light
notes: as for B10
B28: GpH7-B3 variant Y296_06M/GpL16-k0 (antibody, human IgG1, kappa)
heavy: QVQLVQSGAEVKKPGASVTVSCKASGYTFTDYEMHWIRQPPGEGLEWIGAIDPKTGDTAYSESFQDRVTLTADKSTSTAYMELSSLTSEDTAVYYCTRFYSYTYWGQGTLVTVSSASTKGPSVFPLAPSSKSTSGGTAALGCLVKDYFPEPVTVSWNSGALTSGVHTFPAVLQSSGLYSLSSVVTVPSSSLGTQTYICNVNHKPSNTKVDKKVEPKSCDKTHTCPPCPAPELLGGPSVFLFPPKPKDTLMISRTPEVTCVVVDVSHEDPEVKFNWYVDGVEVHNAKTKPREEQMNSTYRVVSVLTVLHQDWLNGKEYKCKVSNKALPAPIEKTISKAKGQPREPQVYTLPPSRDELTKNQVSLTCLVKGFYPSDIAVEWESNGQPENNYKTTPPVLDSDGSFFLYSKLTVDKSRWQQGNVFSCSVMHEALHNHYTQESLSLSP
light: B1 light
notes: as for B10
B29: GpH7-B3 variant S337_04F/GpL16-k0 (antibody, human IgG1, kappa)
heavy: not shown
light: B1 light
notes: as for B10
B30: GpH7-B3 variant S337_08L/GpL16-k0 (antibody, human IgG1, kappa)
heavy: not shown
light: B1 light
notes: as for B10
B31: GpH7-B3 variant I336_14T/GpL16-k0 (antibody, human IgG1, kappa)
heavy: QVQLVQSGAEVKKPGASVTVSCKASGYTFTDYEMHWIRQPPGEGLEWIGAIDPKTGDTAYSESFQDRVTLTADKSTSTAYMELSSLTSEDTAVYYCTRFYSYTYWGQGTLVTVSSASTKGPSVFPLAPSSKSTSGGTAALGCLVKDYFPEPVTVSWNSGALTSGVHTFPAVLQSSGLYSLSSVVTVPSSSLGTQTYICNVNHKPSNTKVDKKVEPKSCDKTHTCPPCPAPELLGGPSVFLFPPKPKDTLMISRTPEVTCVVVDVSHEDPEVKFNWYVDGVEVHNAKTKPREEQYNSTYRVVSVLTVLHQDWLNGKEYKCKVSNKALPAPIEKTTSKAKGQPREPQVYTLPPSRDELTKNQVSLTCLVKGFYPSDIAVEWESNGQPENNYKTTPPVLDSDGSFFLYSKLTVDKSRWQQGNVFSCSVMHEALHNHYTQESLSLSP
light: B1 light
notes: as for B10
B32: GpH7-B3 variant I336_13S/GpL16-k0 (antibody, human IgG1, kappa)
heavy: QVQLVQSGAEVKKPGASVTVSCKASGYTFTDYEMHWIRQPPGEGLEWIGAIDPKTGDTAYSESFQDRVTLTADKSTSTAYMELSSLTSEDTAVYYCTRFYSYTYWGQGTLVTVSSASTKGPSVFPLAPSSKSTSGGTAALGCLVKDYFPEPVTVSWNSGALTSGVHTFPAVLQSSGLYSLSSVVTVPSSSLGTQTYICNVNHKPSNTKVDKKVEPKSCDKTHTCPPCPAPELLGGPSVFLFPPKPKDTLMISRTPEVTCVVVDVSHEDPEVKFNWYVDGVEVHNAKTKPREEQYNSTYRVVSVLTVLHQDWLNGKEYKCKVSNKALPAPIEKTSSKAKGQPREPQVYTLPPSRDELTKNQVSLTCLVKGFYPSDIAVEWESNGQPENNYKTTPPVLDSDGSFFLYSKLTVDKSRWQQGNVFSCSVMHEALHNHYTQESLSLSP
light: B1 light
notes: as for B10
B33: GpH7-B3 variant S337_20W/GpL16-k0 (antibody, human IgG1, kappa)
heavy: not shown
light: B1 light
notes: as for B10
B34: GpH7-B3 variant H268_10E/GpL16-k0 (antibody, human IgG1, kappa)
heavy: not shown
light: B1 light
notes: as for B10
B35: GpH7-B3 variant A330_01G/GpL16-k0 (antibody, human IgG1, kappa)
heavy: not shown
light: B1 light
notes: as for B10
B36: GpH7-B3 variant S337_09D/GpL16-k0 (antibody, human IgG1, kappa)
heavy: not shown
light: B1 light
notes: as for B10
B37: GpH7-B3 variant D265_10E/GpL16-k0 (antibody, human IgG1, kappa)
heavy: not shown
light: B1 light
notes: as for B10
B38: GpH7-B3 variant A330_10E/GpL16-k0 (antibody, human IgG1, kappa)
heavy: not shown
light: B1 light
notes: as for B10
B39: GpH7-B3 variant A330_20W/GpL16-k0 (antibody, human IgG1, kappa)
heavy: not shown
light: B1 light
notes: as for B10
B40: GpH7-B3 variant H268_18N/GpL16-k0 (antibody, human IgG1, kappa)
heavy: not shown
light: B1 light
notes: as for B10
B41: GpH7-B3 variant S337_15Y/GpL16-k0 (antibody, human IgG1, kappa)
heavy: not shown
light: B1 light
notes: as for B10
B42: GpH7-B3 variant A330_04F/GpL16-k0 (antibody, human IgG1, kappa)
heavy: not shown
light: B1 light
notes: as for B10
B43: GpH7-B3 variant T335_07I/GpL16-k0 (antibody, human IgG1, kappa)
heavy: not shown
light: B1 light
notes: as for B10
B44: GpH7-B3 variant T335_18N/GpL16-k0 (antibody, human IgG1, kappa)
heavy: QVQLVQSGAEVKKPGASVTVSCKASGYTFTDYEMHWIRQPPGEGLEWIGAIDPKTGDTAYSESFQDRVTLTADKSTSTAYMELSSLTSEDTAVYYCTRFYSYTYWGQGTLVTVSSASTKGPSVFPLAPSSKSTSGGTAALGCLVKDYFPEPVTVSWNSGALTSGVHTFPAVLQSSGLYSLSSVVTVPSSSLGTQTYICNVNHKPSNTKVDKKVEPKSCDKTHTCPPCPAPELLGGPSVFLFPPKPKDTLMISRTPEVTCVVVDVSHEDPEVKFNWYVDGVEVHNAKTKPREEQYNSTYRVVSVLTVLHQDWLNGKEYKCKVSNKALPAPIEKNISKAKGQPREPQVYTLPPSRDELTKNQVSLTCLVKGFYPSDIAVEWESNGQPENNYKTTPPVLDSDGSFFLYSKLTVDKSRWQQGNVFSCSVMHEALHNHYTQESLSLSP
light: B1 light
notes: as for B10
B45: GpH7-B3 variant S337_19Q/GpL16-k0 (antibody, human IgG1, kappa)
heavy: not shown
light: B1 light
notes: as for B10
B46: GpH7-B3 variant T335_11K/GpL16-k0 (antibody, human IgG1, kappa)
heavy: not shown
light: B1 light
notes: as for B10
B47: GpH7-B3 variant T335_10E/GpL16-k0 (antibody, human IgG1, kappa)
heavy: not shown
light: B1 light
notes: as for B10
B48: GpH7-B3 variant S337_06M/GpL16-k0 (antibody, human IgG1, kappa)
heavy: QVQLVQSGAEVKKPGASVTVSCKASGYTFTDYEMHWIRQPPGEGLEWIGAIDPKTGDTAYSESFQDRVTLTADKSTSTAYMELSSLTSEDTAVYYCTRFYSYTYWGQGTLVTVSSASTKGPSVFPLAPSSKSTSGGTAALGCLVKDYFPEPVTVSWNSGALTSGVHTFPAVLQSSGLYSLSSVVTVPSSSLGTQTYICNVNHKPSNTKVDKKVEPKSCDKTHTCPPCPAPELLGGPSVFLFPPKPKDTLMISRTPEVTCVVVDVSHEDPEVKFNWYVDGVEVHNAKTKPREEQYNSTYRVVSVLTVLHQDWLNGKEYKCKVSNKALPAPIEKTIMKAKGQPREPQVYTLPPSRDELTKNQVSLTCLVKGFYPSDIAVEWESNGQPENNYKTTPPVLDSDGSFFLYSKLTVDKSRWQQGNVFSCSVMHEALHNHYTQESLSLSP
light: B1 light
notes: as for B10
B49: GpH7-B3 variant S337_07I/GpL16-k0 (antibody, human IgG1, kappa)
heavy: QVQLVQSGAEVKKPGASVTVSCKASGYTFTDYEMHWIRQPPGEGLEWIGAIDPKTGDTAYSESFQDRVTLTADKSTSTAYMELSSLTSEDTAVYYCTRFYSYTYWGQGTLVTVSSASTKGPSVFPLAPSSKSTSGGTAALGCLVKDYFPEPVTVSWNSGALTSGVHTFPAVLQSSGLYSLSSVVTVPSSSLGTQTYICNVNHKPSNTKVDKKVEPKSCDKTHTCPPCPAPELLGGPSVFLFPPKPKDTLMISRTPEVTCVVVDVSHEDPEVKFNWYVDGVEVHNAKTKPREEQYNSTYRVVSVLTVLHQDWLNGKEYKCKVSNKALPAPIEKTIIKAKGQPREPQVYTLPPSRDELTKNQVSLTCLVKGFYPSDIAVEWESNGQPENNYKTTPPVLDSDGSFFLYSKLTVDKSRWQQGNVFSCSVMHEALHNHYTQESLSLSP
light: B1 light
notes: as for B10
B50: GpH7-B3 variant T335_09D/GpL16-k0 (antibody, human IgG1, kappa)
heavy: not shown
light: B1 light
notes: as for B10

biological target: T1, FcγRIIa R; assay: SPR (Biacore); He/Con_2aR divided by He/Con_2b (FcγRIIa R over FcγRIIb)

He_2aR/2b (IIaR/IIb) [ratio] | Binder
1.34 | B1
1.21 | B2
1.34 | B3
1.28 | B4
1.4 | B5
1.21 | B6
1.25 | B7
1.3 | B8
1.3 | B9

biological target: T3, FcγRIa (human, UniProt P12314 16-292); assay: SPR (Biacore), captured antibody, FcγRIa analyte; relative to GpH7-B3/GpL16-k0
T3 construct: extracellular domain; soluble His-tagged extracellular domain expressed in FreeStyle293 cells, used as analyte in Biacore; also called FcgRI; CD64
T3 sequence (P12314 16-292): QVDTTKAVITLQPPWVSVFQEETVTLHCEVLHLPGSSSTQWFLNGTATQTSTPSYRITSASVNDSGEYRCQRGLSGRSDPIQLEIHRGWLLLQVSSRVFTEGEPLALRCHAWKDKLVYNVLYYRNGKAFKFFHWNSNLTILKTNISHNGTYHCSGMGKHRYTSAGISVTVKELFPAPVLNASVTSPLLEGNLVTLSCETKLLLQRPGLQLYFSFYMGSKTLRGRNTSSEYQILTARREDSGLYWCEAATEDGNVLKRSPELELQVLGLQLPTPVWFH

Ho/Con_1a | Binder
105 relative, control = 100 | B10
110 relative, control = 100 | B11
104 relative, control = 100 | B12
109 relative, control = 100 | B13
106 relative, control = 100 | B14
110 relative, control = 100 | B15
109 relative, control = 100 | B16
106 relative, control = 100 | B17
106 relative, control = 100 | B18
105 relative, control = 100 | B19
104 relative, control = 100 | B20
106 relative, control = 100 | B21
104 relative, control = 100 | B22
108 relative, control = 100 | B23
106 relative, control = 100 | B24
107 relative, control = 100 | B25
108 relative, control = 100 | B26
105 relative, control = 100 | B27
104 relative, control = 100 | B28
105 relative, control = 100 | B29
105 relative, control = 100 | B30

Ho/Con_1a | Binder
111 relative, control = 100 | B31
110 relative, control = 100 | B32
104 relative, control = 100 | B33
112 relative, control = 100 | B34
106 relative, control = 100 | B35
106 relative, control = 100 | B36
103 relative, control = 100 | B37
108 relative, control = 100 | B38
108 relative, control = 100 | B39
108 relative, control = 100 | B40
104 relative, control = 100 | B41
107 relative, control = 100 | B42
105 relative, control = 100 | B43
102 relative, control = 100 | B44
105 relative, control = 100 | B45
103 relative, control = 100 | B46
108 relative, control = 100 | B47
102 relative, control = 100 | B48
105 relative, control = 100 | B49
107 relative, control = 100 | B50

biological target: T1, FcγRIIa R; assay: SPR (Biacore), captured antibody, FcγR as analyte; relative binding, control GpH7-A5/GpH7-B3/GpL16-k0 = 100

He/Con_2aR [control = 100] | Binder
16 | B1
96.2 | B2
76.5 | B3
90.1 | B4
67.8 | B5
95.8 | B6
99.6 | B7
94.3 | B8
47.7 | B9

biological target: T2, FcγRIIb; assay: as above

He/Con_2b [control = 100] | Binder
11.9 | B1
79.3 | B2
57.2 | B3
70.6 | B4
48.3 | B5
79.3 | B6
79.5 | B7
72.8 | B8
36.6 | B9
